Experimental data published in the supplement of paper PMC10065799, “High-throughput profiling of sequence recognition by tyrosine kinases and SH2 domains using bacterial peptide display” (eLife, 2023).

How the values were obtained:
Grb2 SH2 = Grb2 SH2 (UniProt P62993); assay: SH2 binding enrichment of the phosphorylated peptide, bacterial display (enrichment ratio); higher = better substrate or ligand; peptides without Tyr show the background
c-Src SH2 = assay: as above
SHP2-C SH2 = assay: as above
FGFR3 = FGFR3 (UniProt P22607); assay: phosphorylation enrichment, bacterial display (enrichment ratio); higher = better substrate or ligand; peptides without Tyr show the background
Hck = Hck (UniProt P08631); assay: as above
Sequence of Hck (P08631 whole entry, looked up): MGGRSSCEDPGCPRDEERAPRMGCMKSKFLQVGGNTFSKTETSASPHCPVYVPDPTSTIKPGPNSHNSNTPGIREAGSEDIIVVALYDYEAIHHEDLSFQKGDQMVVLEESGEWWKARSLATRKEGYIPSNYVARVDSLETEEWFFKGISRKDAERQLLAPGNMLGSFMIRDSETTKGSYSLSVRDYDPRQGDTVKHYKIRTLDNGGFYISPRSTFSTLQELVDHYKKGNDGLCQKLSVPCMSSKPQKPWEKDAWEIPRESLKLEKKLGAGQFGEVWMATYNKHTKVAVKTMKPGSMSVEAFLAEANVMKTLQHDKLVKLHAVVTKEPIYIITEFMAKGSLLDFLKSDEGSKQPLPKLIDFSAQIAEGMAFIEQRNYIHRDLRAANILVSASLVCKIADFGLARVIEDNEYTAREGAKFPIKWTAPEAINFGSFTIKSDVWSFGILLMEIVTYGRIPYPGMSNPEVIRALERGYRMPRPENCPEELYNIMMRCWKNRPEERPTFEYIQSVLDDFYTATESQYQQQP

AncSZ = assay: as above
EPHB2 = EPHB2 (UniProt P29323); assay: as above
Sequence of EPHB2 (P29323 whole entry, looked up): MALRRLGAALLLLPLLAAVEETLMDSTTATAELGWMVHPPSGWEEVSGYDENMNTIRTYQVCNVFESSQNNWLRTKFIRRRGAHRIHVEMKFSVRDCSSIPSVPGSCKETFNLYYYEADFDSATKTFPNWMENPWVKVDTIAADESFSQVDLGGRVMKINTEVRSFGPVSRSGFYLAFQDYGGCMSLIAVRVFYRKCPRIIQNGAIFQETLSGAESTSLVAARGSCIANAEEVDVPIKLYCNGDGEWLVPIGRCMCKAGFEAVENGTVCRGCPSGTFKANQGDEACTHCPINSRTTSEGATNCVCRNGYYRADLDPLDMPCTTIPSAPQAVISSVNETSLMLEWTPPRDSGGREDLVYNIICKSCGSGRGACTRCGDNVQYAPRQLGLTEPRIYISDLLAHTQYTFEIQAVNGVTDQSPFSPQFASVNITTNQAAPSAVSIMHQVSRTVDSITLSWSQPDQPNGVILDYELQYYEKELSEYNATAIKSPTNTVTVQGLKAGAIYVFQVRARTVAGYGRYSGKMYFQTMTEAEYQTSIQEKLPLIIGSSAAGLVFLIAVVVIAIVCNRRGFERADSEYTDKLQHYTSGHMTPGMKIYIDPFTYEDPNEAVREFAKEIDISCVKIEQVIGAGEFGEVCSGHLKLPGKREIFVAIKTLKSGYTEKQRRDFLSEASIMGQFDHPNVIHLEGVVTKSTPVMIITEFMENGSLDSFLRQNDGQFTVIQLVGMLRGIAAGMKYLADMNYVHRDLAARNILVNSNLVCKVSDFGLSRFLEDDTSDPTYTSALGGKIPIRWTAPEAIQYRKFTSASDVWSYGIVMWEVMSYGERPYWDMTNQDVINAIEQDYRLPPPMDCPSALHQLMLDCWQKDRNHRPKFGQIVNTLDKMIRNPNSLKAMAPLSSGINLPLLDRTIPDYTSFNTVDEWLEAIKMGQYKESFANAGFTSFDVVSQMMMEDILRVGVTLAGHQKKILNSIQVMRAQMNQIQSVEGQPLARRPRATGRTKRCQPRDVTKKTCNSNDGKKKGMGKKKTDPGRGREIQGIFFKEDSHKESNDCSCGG

FGFR1 = FGFR1 (UniProt P11362); assay: as above
Jak2 = Jak2 (UniProt O60674); assay: as above
Sequence of Jak2 (O60674 whole entry, looked up): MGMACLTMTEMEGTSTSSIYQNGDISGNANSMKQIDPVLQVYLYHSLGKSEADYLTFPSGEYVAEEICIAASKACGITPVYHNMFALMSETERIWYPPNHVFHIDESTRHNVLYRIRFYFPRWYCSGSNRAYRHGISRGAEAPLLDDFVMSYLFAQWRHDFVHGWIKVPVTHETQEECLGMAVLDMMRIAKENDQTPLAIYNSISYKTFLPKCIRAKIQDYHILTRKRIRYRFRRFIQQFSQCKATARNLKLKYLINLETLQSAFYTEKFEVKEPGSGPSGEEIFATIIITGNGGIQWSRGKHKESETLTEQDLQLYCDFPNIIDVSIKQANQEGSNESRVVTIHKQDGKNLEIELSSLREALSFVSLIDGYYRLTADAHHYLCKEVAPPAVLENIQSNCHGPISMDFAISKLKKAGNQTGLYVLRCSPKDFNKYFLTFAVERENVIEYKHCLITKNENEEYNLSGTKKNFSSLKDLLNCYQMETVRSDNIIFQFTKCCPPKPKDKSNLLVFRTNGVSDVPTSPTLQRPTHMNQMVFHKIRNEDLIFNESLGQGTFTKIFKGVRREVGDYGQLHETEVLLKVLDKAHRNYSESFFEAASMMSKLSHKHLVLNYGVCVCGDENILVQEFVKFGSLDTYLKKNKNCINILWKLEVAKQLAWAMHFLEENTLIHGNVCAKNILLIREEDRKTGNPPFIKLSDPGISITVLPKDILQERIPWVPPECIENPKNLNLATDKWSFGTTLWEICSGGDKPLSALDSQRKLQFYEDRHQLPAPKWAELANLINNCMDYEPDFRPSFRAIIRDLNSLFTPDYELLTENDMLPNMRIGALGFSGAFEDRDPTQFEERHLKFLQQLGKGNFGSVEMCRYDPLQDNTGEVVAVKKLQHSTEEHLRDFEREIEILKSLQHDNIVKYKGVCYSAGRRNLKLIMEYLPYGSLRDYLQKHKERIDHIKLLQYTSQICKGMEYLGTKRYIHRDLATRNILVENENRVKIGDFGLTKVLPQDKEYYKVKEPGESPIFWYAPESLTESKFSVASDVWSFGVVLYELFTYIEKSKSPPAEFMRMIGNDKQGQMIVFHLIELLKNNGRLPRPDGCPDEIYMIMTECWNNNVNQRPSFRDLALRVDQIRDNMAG

Fyn = Fyn (UniProt P06241); assay: as above
MERTK = MERTK (UniProt Q12866); assay: as above
Sequence of MERTK (Q12866 whole entry, looked up): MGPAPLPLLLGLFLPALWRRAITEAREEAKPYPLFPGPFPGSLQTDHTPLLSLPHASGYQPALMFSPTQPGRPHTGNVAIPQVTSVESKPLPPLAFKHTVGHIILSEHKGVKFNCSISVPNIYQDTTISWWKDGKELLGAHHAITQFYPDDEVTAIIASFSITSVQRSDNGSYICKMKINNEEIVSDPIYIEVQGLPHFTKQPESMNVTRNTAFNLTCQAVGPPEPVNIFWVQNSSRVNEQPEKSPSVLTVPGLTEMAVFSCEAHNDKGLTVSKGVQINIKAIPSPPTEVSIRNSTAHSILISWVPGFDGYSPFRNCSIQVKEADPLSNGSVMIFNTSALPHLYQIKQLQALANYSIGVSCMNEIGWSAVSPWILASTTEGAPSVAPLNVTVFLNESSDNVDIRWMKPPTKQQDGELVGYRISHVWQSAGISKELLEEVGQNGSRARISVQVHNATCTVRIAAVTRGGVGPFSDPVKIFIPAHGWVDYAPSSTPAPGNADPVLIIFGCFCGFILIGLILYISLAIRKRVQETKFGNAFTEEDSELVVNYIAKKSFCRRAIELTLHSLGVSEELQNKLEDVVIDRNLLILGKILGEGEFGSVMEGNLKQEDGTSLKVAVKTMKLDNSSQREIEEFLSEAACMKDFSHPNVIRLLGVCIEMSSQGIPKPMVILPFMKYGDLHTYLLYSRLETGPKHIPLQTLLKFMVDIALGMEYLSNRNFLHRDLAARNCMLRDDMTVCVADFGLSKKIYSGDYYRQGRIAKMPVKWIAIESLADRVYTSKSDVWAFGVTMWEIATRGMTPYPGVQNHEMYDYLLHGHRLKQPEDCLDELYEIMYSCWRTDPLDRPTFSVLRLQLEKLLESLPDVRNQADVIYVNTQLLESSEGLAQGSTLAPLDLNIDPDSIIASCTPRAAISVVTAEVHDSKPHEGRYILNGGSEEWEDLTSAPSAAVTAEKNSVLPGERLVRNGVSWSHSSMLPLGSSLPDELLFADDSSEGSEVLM

c-Abl (mouse) = assay: as above
c-Src = assay: as above
Fer (mouse) = assay: as above
Fes = Fes (UniProt P07332); assay: as above
EPHB1 = EPHB1 (UniProt P54762); assay: as above
Sequence of EPHB1 (P54762 whole entry, looked up, the tested form may be a part): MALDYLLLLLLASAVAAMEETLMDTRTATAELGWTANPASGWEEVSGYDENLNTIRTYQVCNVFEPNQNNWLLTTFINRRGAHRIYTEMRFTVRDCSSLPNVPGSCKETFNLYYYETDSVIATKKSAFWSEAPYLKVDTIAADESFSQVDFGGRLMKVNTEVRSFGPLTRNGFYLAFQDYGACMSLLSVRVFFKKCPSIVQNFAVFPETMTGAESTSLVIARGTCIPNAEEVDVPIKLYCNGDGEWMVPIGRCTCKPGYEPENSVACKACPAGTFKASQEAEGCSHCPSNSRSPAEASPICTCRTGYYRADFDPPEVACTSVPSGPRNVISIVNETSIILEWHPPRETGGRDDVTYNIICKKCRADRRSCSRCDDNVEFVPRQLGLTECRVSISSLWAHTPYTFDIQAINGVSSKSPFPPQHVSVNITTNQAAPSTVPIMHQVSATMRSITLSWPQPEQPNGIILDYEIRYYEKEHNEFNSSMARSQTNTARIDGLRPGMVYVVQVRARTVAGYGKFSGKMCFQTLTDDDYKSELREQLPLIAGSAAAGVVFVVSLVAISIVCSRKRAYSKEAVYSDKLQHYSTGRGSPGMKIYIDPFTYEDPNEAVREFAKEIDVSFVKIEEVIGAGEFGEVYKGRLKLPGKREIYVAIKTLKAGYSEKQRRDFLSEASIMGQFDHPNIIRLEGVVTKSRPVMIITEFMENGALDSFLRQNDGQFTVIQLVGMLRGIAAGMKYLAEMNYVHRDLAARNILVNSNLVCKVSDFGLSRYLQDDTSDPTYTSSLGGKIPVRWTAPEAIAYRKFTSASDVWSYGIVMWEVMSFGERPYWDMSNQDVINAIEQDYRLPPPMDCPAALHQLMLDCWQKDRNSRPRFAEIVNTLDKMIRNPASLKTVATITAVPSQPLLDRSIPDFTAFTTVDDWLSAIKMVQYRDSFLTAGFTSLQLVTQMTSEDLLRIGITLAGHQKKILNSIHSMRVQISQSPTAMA
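Throughout, for SH2 binding enrichment of the phosphorylated peptide, bacterial display: peptide library displayed on the E. coli surface as eCPX fusions, selected cells deep-sequenced, score is each peptide's frequency after selection divided by its frequency in the input.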
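Throughout, for phosphorylation enrichment, bacterial display: 11-residue human phosphosite peptides and single-mutation variants displayed on the E. coli surface, counted by deep sequencing, each peptide's frequency after selection divided by its frequency in the unselected input library; frequency after pTyr selection over input frequency; kinase dosed for 20-30% of maximal phosphorylation in three min.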

| SH2 binding enrichment (Grb2 SH2) | SH2 binding enrichment (c-Src SH2) | SH2 binding enrichment (SHP2-C SH2) | Sequence | phosphorylation enrichment (FGFR3) | phosphorylation enrichment (Hck) | phosphorylation enrichment (AncSZ) | phosphorylation enrichment (EPHB2) | phosphorylation enrichment (FGFR1) | phosphorylation enrichment (Jak2) | phosphorylation enrichment (Fyn) | phosphorylation enrichment (MERTK) | phosphorylation enrichment (c-Abl (mouse)) | phosphorylation enrichment (c-Src) | phosphorylation enrichment (Fer (mouse)) | phosphorylation enrichment (Fes) | phosphorylation enrichment (EPHB1) |
| --- | --- | --- | --- | --- | --- | --- | --- | --- | --- | --- | --- | --- | --- | --- | --- | --- |
| 1.25 | 0.823 | 1.95 | IVKAYYVHARA [AIPL1_Y268_R270H] | 0.633 | 0.595 | 0.857 | 0.533 | 0.538 | 0.818 | 0.424 | 0.572 | 0.663 | 0.432 | 0.574 | 0.978 | 0.567 |
| 0.73 | 0.571 | 0.96 | DENWFYTRAAF [RPS19_Y54_S59F] | 0.786 | 0.629 | 1.25 | 0.594 | 0.586 | 1.48 | 0.47 | 0.55 | 0.868 | 0.534 | 0.571 | 1.32 | 0.681 |
| 0.74 | 0.696 | 0.541 | SGTYQYIIAKF [FOXL2_Y83_I80T] | 2.42 | 2.06 | 1.43 | 1.53 | 3.65 | 1.29 | 0.749 | 5.26 | 1.17 | 0.943 | 2.58 | 1.51 | 4.98 |
| 0.795 | 3.07 | 0.808 | NALAQYQEMEK [BBS4_Y395] | 0.658 | 0.612 | 1.1 | 0.471 | 0.594 | 0.714 | 0.545 | 0.467 | 0.512 | 0.366 | 0.454 | 0.967 | 0.466 |
| 1.17 | 0.86 | 0.906 | GCRSKHVGLWG [KCNQ1_Y184_Y184H] | 0.388 | 0.328 | 0.518 | 0.314 | 0.36 | 0.409 | 0.385 | 0.397 | 0.516 | 0.359 | 0.325 | 0.481 | 0.316 |
| 1.23 | 0.882 | 3.03 | LIGTPYWMAPE [PAK5_Y608_V604I] | 3.65 | 1 | 1.74 | 1 | 4.64 | 1.17 | 0.825 | 1.32 | 0.987 | 2.6 | 0.917 | 1.51 | 1.4 |
| 0.871 | 6.41 | 0.538 | TRSYDYMEGGD [FGF7_Y58] | 0.731 | 0.488 | 1.02 | 0.593 | 0.486 | 0.802 | 0.458 | 0.45 | 0.586 | 0.447 | 0.456 | 1.03 | 0.58 |
| 0.814 | 0.503 | 0.749 | ANARMYGVLPW [PLP1_Y207_D203N] | 0.506 | 6.06 | 0.74 | 0.676 | 0.462 | 0.616 | 4.99 | 0.734 | 0.846 | 3.85 | 0.474 | 0.783 | 0.513 |
| 0.816 | 0.679 | 0.643 | AGQEEYSAMRD [HRAS_Y64] | 0.591 | 0.498 | 0.879 | 0.547 | 0.477 | 0.788 | 0.462 | 0.418 | 0.678 | 0.456 | 0.429 | 0.931 | 0.507 |
| 0.807 | 0.446 | 0.698 | AFDNLYYWDQD [ERBB2_Y1221] | 9.6 | 5.36 | 2.31 | 4.41 | 9.23 | 1.55 | 6.31 | 7.32 | 0.81 | 5.67 | 3.07 | 2.42 | 5.88 |
| 1.24 | 0.763 | 0.702 | FSAPNYCFRCG [PPP2CA_Y265_YF] | 0.486 | 0.374 | 0.661 | 0.448 | 0.474 | 0.511 | 0.349 | 0.393 | 0.416 | 0.343 | 0.415 | 0.674 | 0.397 |
| 0.888 | 0.532 | 0.66 | VIKDKYPQARY [APTX_Y209_K211Q] | 0.453 | 0.373 | 0.498 | 0.394 | 0.358 | 0.554 | 0.363 | 0.377 | 0.523 | 0.43 | 0.42 | 0.569 | 0.401 |
| 0.788 | 0.415 | 0.976 | ENAGYYFRVSA | 0.719 | 0.476 | 1.26 | 0.665 | 0.508 | 1.21 | 0.435 | 0.347 | 0.775 | 0.322 | 0.456 | 1.26 | 0.568 |
| 1.11 | 0.553 | 0.838 | EFGEVYKGMLK [EPHA2_Y628] | 0.526 | 0.454 | 0.503 | 0.441 | 0.439 | 0.394 | 0.422 | 0.367 | 0.377 | 0.481 | 0.411 | 0.579 | 0.343 |
| 1.03 | 0.591 | 0.614 | AQQPIYIRVEG [NLRP7_Y318_V319I] | 0.702 | 0.733 | 1.12 | 1.2 | 0.652 | 0.955 | 0.525 | 0.641 | 0.725 | 0.793 | 0.588 | 1.18 | 1.3 |
| 0.797 | 0.373 | 0.584 | DSFATYFRRVL [H2BW1_Y84] | 0.703 | 0.82 | 1.35 | 0.677 | 0.496 | 1 | 0.472 | 0.448 | 0.798 | 0.532 | 0.426 | 1.2 | 0.607 |
